Values joined by “and” are separate entries in the source; they are usually repeats but may differ in a detail not shown here. Equal values may be shown once.
B1: 1H9 (parental mouse anti-human SIRPa monoclonal antibody) (antibody, V domains shown)
VH: QVQLQQPGAERVKPGASVKMSCKASGYTFTSYWITWVKQRPGQGLEWIGDIYPGSGSTNHIEKFKSKATLTVDTSSNTAYMQLSRLTSEDSAVYYCATGYGSSYGYFDYWGQGTTLTVSS
VL: DIQMTQSPASLSASVGETVTITCRASENIYSYLAWYQQKQGKSPQLLVYTAKTLAEGVPSRFSGSGSGTQFSLKINSLQPEDFGNYYCQHQYGPPFTFGSGTRLVIK
notes: Hybridoma-derived mouse antibody; also called mouse 1H9
B2: Humanized 1H9 (antibody, human IgG1, kappa, N297A, V domains shown)
VH: QVQLVQSGAEVKKPGASVKVSCKASGYTFTSYWITWVKQAPGQGLEWIGDIYPGSGSTNHIEKFKSKATLTVDTSISTAYMELSRLRSDDTAVYYCATGYGSSYGYFDYWGQGTLVTVSS
VL: DIQMTQSPSSLSASVGDRVTITCRASENIYSYLAWYQQKPGKAPKLLIYTAKTLAEGVPSRFSGSGSGTDFTLTISSLQPEDFATYYCQHQYGPPFTFGQGTKLEIKR
notes: also called Hu1H9-G1; humanized 1H9-G1
B3: 3C2 (parental mouse anti-human SIRPa monoclonal antibody) (antibody, V domains shown)
VH: QVQLQQPGAELVRPGSSVKLSCKASGYTFTSYWMHWVKQRPIQGLEWIGNIDPSDSDTHYNQKFKDKATLTVDKSSSTAYMQLSSLTSEDSAVYYCARGYSKYYAMDYWGQGTSVTVSS
VL: DVLMTQTPLSLSVSLGDQASISCRSSQSIVHSYGNTYLEWYLQKPGQSPKLLIYKVSNRFSGVPDRFSGSGSGTDFTLKISRVEAEDLGVYYCFQGSHVPYTFGGGTKLEIK
notes: Hybridoma-derived mouse antibody; also called mouse 3C2

Columns and labels:
[1] = target: T1, human SIRPG-His fusion protein (human, UniProt Q9P1W8-2 29-327, limits assumed); experiment: ELISA, binding to human SIRPG-His fusion protein
T1 construct: also called SIRP gamma; not shown: His tag
T1 sequence (Q9P1W8 62-360 limits assumed): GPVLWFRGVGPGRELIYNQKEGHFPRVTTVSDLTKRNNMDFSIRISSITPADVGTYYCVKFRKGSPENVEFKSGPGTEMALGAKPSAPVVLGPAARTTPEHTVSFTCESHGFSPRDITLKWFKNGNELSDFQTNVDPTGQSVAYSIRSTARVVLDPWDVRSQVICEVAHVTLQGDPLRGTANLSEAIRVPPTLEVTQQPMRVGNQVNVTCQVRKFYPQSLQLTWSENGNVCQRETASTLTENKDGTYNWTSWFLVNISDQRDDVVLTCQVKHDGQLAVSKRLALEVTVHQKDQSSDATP

[2] = target: T2, human SIRP-alpha variant 2 (V2) on monocytes and macrophages of V2 homozygous donors (human, UniProt Q5TFQ8 30-145); experiment: flow cytometry on monocytes; blocking of AF488-conjugated human CD47-Fc binding
T2 construct: the whole native protein stood on the cells; The definitions name GenBank CAA71403.1 for the V2 form (residues 30-504 mature); also called SIRPa V2
T2 sequence (Q5TFQ8 other isoform, or with tags, fused parts or gaps mutant): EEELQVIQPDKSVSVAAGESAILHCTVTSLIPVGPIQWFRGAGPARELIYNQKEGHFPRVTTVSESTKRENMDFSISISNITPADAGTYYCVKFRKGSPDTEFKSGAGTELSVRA
Procedure: (§1) Blocking human CD47 binding on monocytes isolated from human donors. Human peripheral blood mononuclear cells (PBMCs) were isolated from human blood using Ficoll. 5×10⁵ cells were incubated with 1 ug/ml of AF488-conjugated human CD47-Fc fusion protein in the absence or presence of increasing concentrations of hHu1H9-G1. Binding of CD47 on the cells was measured and analyzed by flow cytometry.

[3] = target: T3, human SIRP-alpha variant 1 (V1) on monocytes and macrophages of V1 homozygous donors (human, UniProt P78324 31-146); experiment: as above
T3 construct: the whole native protein stood on the cells; also called SIRPa V1
T3 sequence (P78324 31-146, change not shown): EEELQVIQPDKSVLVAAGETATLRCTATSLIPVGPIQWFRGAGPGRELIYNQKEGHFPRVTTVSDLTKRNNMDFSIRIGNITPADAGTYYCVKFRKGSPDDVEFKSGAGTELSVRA
Procedure: as §1

[4] = target: T4, human SIRP-alpha V1/V5 (heterozygous) on monocytes and macrophages of V1/V5 donors (human); experiment: as above
T4 construct: Not a complex: the two allelic forms carried together by the cells of heterozygous donors
T4 sequence (P78324 whole entry): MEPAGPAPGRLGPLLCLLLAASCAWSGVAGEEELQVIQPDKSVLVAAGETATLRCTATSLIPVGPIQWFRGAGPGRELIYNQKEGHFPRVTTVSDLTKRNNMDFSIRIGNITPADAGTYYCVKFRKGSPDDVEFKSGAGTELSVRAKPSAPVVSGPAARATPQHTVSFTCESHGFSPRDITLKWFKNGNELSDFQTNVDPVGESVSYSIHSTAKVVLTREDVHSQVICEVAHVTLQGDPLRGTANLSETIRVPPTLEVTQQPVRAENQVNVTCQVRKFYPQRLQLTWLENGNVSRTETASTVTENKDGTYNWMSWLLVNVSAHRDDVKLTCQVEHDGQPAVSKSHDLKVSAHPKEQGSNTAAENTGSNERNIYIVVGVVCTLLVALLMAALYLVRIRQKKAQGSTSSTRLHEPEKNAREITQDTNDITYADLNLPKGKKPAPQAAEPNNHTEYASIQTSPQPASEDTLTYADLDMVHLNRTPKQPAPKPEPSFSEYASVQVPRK
Procedure: as §1

Row | Binder | binding result [1] | IC50 (read off the curve) [2] | IC50 (read off the curve) [3] | IC50 (read off the curve) [4]
1 | B1 | no binding (tested: about 3000 ng/mL) |  |  | 
2 | B2 |  | ~20 µg/mL | ~8 µg/mL and ~4 µg/mL | ~3 µg/mL
3 | B3 | no binding (tested: about 3000 ng/mL) |  |  | 

— patent US20210171654A1 (FORTY SEVEN, published 2021)
